Results reported in patent US20200199214A1 (Hoffmann-La Roche, published 2020).
Positions count from the first letter of the chain named. Each block holds one binder with its values, some of them ahead of it.

Key:
[1] = target: T1, human IL-1 beta (PeproTech 200-01B) (human, UniProt P01584 117-269); assay: SPR, Fab captured via anti-Fab antibody, human IL-1beta injected, 1:1 Langmuir fit
T1 construct: As printed it covers only the N-terminal part of the precursor, so it was not used; also called huIL-1 beta; IL1β
Protocol: (§1) An anti-Fab capturing antibody (GE Healthcare 28958325) was immobilized to a Series S Sensor Chip C1 (GE Healthcare 29104990) using standard amine coupling chemistry resulting in a surface density of approximately 500 resonance units (RU). The bispecific anti-VEGF/anti-IL-1beta Fab fragment was captured to the surface with resulting capture levels of approximately 20 RU. A dilution series ranging from 0.74 to 60 nM (1:3 dilution) of either human IL-1 beta (PeproTech 200-01B) or cynomolgus IL-1 beta (Sino Biological 90010-CNAE) was injected for 90 s, dissociation was monitored for at least 600 s at a flow rate of 30 μl/min. The surface was regenerated by two consecutive injections of 10 mM Glycine pH 2.1 for 60 s each. Bulk refractive index differences were corrected by subtracting blank injections and by subtracting the response obtained from the control flow cell without captured bispecific anti-VEGF/anti-IL-1beta Fab fragment. Curve fitting was performed using the 1:1 Langmuir binding model within the Biacore evaluation software.
(§2) Binding kinetics to VEGF and IL-1beta for the candidate antibodies were assessed as described in Example 3 using the indicated bispecific anti-VEGF/anti-IL-1beta Fab fragments (amino acid sequence as illustrated in Table 3). For comparison, antigen binding kinetics of prior art anti-VEGF/anti-IL-1beta antibody 0032, a full length IgG antibody, as disclosed in WO2016/075034 are depicted.

[2] = target: T2, cynomolgus IL-1 beta (Sino Biological 90010-CNAE) (cynomolgus, UniProt P79182 117-268); assay: SPR, Fab captured via anti-Fab antibody, cynomolgus IL-1beta injected, 1:1 Langmuir fit
T2 sequence (looked up): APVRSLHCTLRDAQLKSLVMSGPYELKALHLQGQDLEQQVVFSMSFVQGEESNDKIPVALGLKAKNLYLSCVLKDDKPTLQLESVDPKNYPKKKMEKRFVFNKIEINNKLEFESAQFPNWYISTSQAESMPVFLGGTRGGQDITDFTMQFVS
Protocol: as §1, §2

[3] = target: T1, human IL-1 beta (PeproTech 200-01B); assay: SPR, Fab captured via anti-Fab antibody, human IL-1beta injected, 1:1 Langmuir fit; n = 4
Protocol: as §1
Binding kinetics to VEGF and IL-1beta for the candidate antibodies were assessed as described in Example 3 using the indicated bispecific anti-VEGF/anti-IL-1beta Fab fragments (amino acid sequence as illustrated in Table 3). […]

Human VEGF121-His [4] = target: T3, Human VEGF121-His (human, UniProt P15692-9 27-147); assay: SPR, VEGF121-His captured via anti-His antibody, Fab injected, single cycle kinetics, 1:1 Langmuir fit
T3 construct: not shown: His tag
T3 sequence (looked up): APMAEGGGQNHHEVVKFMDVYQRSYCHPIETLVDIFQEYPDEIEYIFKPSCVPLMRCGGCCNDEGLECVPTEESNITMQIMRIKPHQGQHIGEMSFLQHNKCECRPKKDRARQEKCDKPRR
Protocol: (§3) An anti-His capturing antibody (GE Healthcare 28995056) was immobilized to a Series S Sensor Chip C1 (GE Healthcare 29104990) using standard amine coupling chemistry resulting in a surface density of approximately 500 resonance units (RU). As running and dilution buffer, HBS-P+(10 mM HEPES, 150 mM NaCl pH 7.4, 0.05% Surfactant P20) was used. Human VEGF121-His was captured to the surface with resulting ligand densities of approximately 10 and 20 RU, respectively. A dilution series of the bispecific anti-VEGF/anti-IL-1beta Fab fragment (1.2-100 nM, 1:3 dilution) was successively injected for 90 s each, dissociation was monitored for 3600 s at a flow rate of 30 μl/min (single cycle kinetics). The surface was regenerated by injecting 10 mM Glycine pH 1.5 for 60 s. Bulk refractive index differences were corrected by subtracting blank injections and by subtracting the response obtained from the control flow cell without captured human VEGF121. Curve fitting was performed using the 1:1 Langmuir binding model within the Biacore evaluation software. To provide more robust fitting, the Multiple Rmax option was chosen for global fitting using both ligand densities.
as §2

[5] = target: T1, human IL-1 beta (PeproTech 200-01B); assay: SPR, Fab captured via anti-Fab antibody, IL-1beta injected 0.74-60 nM, 1:1 Langmuir fit
Protocol: as §1, §2

[6] = target: T1, human IL-1 beta (PeproTech 200-01B); assay: SPR, Fab captured via anti-Fab antibody, human IL-1beta injected, 1:1 Langmuir fit (same values as Table 1)
Protocol: as §1, §2

Human VEGF121-His [7] = target: T3, Human VEGF121-His; assay: SPR, VEGF121-His captured via anti-His antibody, Fab injected 1.2-100 nM, single cycle kinetics, 1:1 Langmuir fit
Protocol: as §3, §2

Human VEGF121-His [8] = target: T3, Human VEGF121-His; assay: SPR, VEGF121-His captured via anti-His antibody, Fab injected, single cycle kinetics, 1:1 Langmuir fit (same values as Table 1)
Protocol: as §3, §2

human VEGF121 = target: T4, human VEGF121 (human, UniProt P15692-9 27-147); assay: competition ELISA: Fab preincubated with VEGF121, free VEGF121 bound to coated rhVEGFR-1-Fc detected; sheet title 'Competition ELISA VEGFR1-Fc, 8 pM VEGF121'
T4 construct: No tag is stated for these preparations; Kept apart from VEGF121-His; also called HuVEGF121
T4 sequence (looked up): T3 sequence (looked up)
Protocol: (§4) 96-well-Plates (Maxisorp Nunc-Immoplates) were coated with 50 μL/well rhVEGFR-1-Fc (R&D #321-FL-050) at a final concentration of 1 μg/ml in 200 mM NaHC0₃, pH 9.4 for 1 hour at room temperature.
(§5) Meanwhile, antibody Fab fragments of different concentrations were preincubated with VEGF for form an antibody Fab-VEGF premix as follows: A dilution series of antibody Fab fragment was prepared by adding 280 μl of a solution of antibody Fab fragments (409.6 nM antibody in PBST-1% BSA) into the wells of the first column of a round bottom 96-well PS plate. The individual wells of columns 2-12 of the same plate were filled with 140 μl PBST-1% BSA. Subsequently, 1:2 dilutions were performed by transferring 140 μl of the antibody solution into the next column, thorough mixing and proceed with transferring 140 μl of this diluted antibody solution to the next column. This is repeated until column 11. Excess of 140 μl were discarded so that all wells comprise 140 μl. Column 12 served as the control (blank). […] 50 μl of the dilution series of the respective antibody Fab fragment were added to the VEGF121, or VEGF165, respectively; mixed thoroughly and incubated for 1.5 hours at room temperature.
(§6) The rhVEGFR-1-Fc coated plates were washed two times with PBST and blocked for 45 min with 200 μl of 2% MPBST. After washing off the MPBST solution twice with PBST, 50 μl of the antibody Fab-VEGF premix were added to the plate and incubated for 1.5 hours at room temperature. Subsequently, the plates were washed twice with PBST. Then, 50 μl of a solution comprising biotinylated anti-VEGF antibody (R&D, BAF293; 1:2000 dilution in PBST) and SA-HRP (KPL, 14-30-00; 1:2000 dilution in PBST) was added and incubated for 30 min at room temperature. After 6× washing with PBST, 50 μl of TMB substrate solution (two-component HRP substrate (KPL, 34021); used at room temperature) was added and incubated for 30 min at room temperature. 50 μl of 1N H₂SO₄ was added and absorbance was read at 450 nm.

VEGF165 = target: T5, VEGF165 (UniProt P15692-4 27-191); assay: competition ELISA: Fab preincubated with VEGF165, free VEGF165 bound to coated rhVEGFR-1-Fc detected; sheet title 'Competition ELISA VEGFR1-Fc, 8 pM VEGF165'
T5 construct: also called VEGF165 (Humanzyme, HZ-1153)
Protocol: as §4, §5, §6

koff [1]: 0.000107 s⁻¹ | kon [1]: 1.66e+06 M⁻¹ s⁻¹ | Kd [2]: 45 pM | koff [2]: 0.000118 s⁻¹ | kon [2]: 2.6e+06 M⁻¹ s⁻¹ | t½ [2]: 1.63 h | Kd [3]: 59 pM | t 1/2 [3]: 1.82 h | Kd (Human VEGF121-His [4]): 10 pM | koff (Human VEGF121-His [4]): 1.47e-05 s⁻¹ | kon (Human VEGF121-His [4]): 1.53e+06 M⁻¹ s⁻¹ | t½ (Human VEGF121-His [4]): 13.2 h
B1: bispecific anti-VEGF/anti-IL-1beta Fab fragment 1HVL5.15 (Fab, V domains shown)
VH: DETLVESGGGLVKPGGSLRLSCAAEGMVFKWNDMSWVRQAPGKGLEWVGSISKKGDHKYLNTKFIGRFTISRDNEKDTLYLQMNSLRAEDTAVYYCAKDVGFFDIWGQGTLVTVSS
VL: AIYMHQEPSSLSASVGDRVTITCHGSYWLSSLMAWYQQKPGKAPKLLIYDAKYKHLGVPSRFSGSGSHEDYTLTISSLQPEDFATYYCQQYRYHPYTFGHGTKVEIKR

Kd [5]: 4560 pM | koff [5]: 0.0256 s⁻¹ | kon [5]: 5.61e+06 M⁻¹ s⁻¹ | t 1/2 [5]: 30 s | Kd [2]: 5790 pM | koff [2]: 0.0182 s⁻¹ | kon [2]: 3.14e+06 M⁻¹ s⁻¹ | t½ [2]: 0.01 h | Kd [6]: 4560 pM | koff [6]: 0.0256 s⁻¹ | kon [6]: 5.61e+06 M⁻¹ s⁻¹ | t 1/2 [6]: 30 s | Kd (Human VEGF121-His [7]): 8 pM | koff (Human VEGF121-His [7]): 1.45e-05 s⁻¹ | kon (Human VEGF121-His [7]): 1.75e+06 M⁻¹ s⁻¹ | t 1/2 (Human VEGF121-His [7]): 13.3 h | Kd (Human VEGF121-His [8]): 8 pM | koff (Human VEGF121-His [8]): 1.45e-05 s⁻¹ | kon (Human VEGF121-His [8]): 1.75e+06 M⁻¹ s⁻¹ | t½ (Human VEGF121-His [8]): 13.3 h | IC50 (read off the curve) (human VEGF121): ~80 pM | IC50 (read off the curve) (VEGF165): ~200 pM
B2: bispecific anti-VEGF/anti-IL-1beta Fab fragment 1HVL2.3 (Fab, V domains shown)
VH: EQLVESGGGLVKPGGSLRLSCAASGMVFSWNAMSWVRQAPGKGLEWVGSISPKGDHKYLNTKFIGRFTISRDNSKNTLYLQMNSLRAEDTAVYYCAKDIGFFDVWGQGTLVTVSS
VL: B1 VL with S31N, L32Y, M33L, K52S, K54R, H55I, L56I
notes: First expressed in E. coli TG1, later in HEK293

Kd [1]: 28 pM | koff [1]: 0.000135 s⁻¹ | kon [1]: 4.76e+06 M⁻¹ s⁻¹ | t 1/2 [1]: 1.43 h | Kd [2]: 20 pM | koff [2]: 6.54e-05 s⁻¹ | kon [2]: 3.34e+06 M⁻¹ s⁻¹ | t½ [2]: 2.95 h | Kd (Human VEGF121-His [4]): 6 pM | koff (Human VEGF121-His [4]): 1.51e-05 s⁻¹ | kon (Human VEGF121-His [4]): 2.5e+06 M⁻¹ s⁻¹ | t½ (Human VEGF121-His [4]): 12.7 h | IC50 (read off the curve) (human VEGF121): ~40 pM | IC50 (read off the curve) (VEGF165): ~90 pM
B3: bispecific anti-VEGF/anti-IL-1beta Fab fragment 1HVL12.85 (Fab, V domains shown)
VH: B1 VH with T3Q
VL: B1 VL with M33V, G66K, S67E, H68D, E69Q, D70E, Y71F
